Test results reported in patent publication US20060270591A1 (published 2006).

B1: GALAD70-N2: GAL4AD fused ARA70 aa 176-401 (other, not shown: large carriers)
chain: GPFLEKRGCISMPEQKSASGIVAVPFSEWLLGSKPASGYQAPYIPSTDPQDWLTQKQTLENSQTSSRACNFFNNVGGNLKGLENWLLKSEKSSYQKCNSHSTTSSFSIEMEKVGDQELPDQDEMDLSDWLVTPQESHKLRKPENGSRETSEKFKLLFQSYNVNDWLVKTDSCTNCQGNQPKGVEIENLGNLKCLNDHLEAKKPLSTPSMVTEDWLVQNHQDPCKVE
notes: also called ARA70-N2 peptide (aa 176 to 401); ARA70-N2
B2: GAL4 DBD fused ARA70-C (aa 383-614) (other)
chain: MKLLSSIEQACDICRLKKLKCSKEKPKCAKCLKNNWECRYSPKTKRSPLTRAHLTEVESRLERLEQLFLLIFPREDLDMILKMDSLQDIKALLTGLFVQDNVNKDAVTDRLASVETDMPLTLRQHRISATSSSEESSNKGQRQLTVSSMVTEDWLVQNHQDPCKVEEVCRANEPCTSFAECVCDENCEKEALYKWLLKKEGKDKNGMPVEPKPEPEKHKDSLNMWLCPRKEVIEQTKAPKAMTPSRIADSFQVIKNSPLSEWLIRPPYKEGSPKEVPGTEDRAGKQKFKSPMNTSWCSFNTADWVLPGKKMGNLSQLSSGEDKWLLRKKAQEVLLNSPLQEEHNFPPDHYGLPAVCDLFACMQLKVDKEKWLYRTPLQM
notes: Mammalian two-hybrid
B3: ARA70 (mammalian two-hybrid construct of Example 1) (other)
chain: MNTFQDQSGSSSNREPLLRCSDARRDLELAIGGVLRAEQQIKDNLREVKAQIHSCISRHLECLRSREVWLYEQVDLIYQLKEETLQQQAQQLYSLLGQFNCLTHQLECTQNKDLANQVSVCLERLGSLTLKPEDSTVLLFEADTITLRQTITTFGSLKTIQIPEHLMAHASSANIGPFLEKRGCISMPEQKSASGIVAVPFSEWLLGSKPASGYQAPYIPSTDPQDWLTQKQTLENSQTSSRACNFFNNVGGNLKGLENWLLKSEKSSYQKCNSHSTTSSFSIEMEKVGDQELPDQDEMDLSDWLVTPQESHKLRKPENGSRETSEKFKLLFQSYNVNDWLVKTDSCTNCQGNQPKGVEIENLGNLKCLNDHLEAKKPLSTPSMVTEDWLVQNHQDPCKVEEVCRANEPCTSFAECVCDENCEKEALYKWLLKKEGKDKNGMPVEPKPEPEKHKDSLNMWLCPRKEVIEQTKAPKAMTPSRIADSFQVIKNSPLSEWLIRPPYKEGSPKEVPGTEDRAGKQKFKSPMNTSWCSFNTADWVLPGKKMGNLSQLSSGEDKWLLRKKAQEVLLNSPLQEEHNFPPDHYGLPAVCDLFACMQLKVDKEKWLYRTPLQM
notes: pGAL4-VP16 was used to construct a fusion of ARA70; limits and fusion partner not clearly stated
B4: GALAD70-C: GAL4AD fused ARA70 aa 383-614 (other, not shown: large carriers)
chain: SMVTEDWLVQNHQDPCKVEEVCRANEPCTSFAECVCDENCEKEALYKWLLKKEGKDKNGMPVEPKPEPEKHKDSLNMWLCPRKEVIEQTKAPKAMTPSRIADSFQVIKNSPLSEWLIRPPYKEGSPKEVPGTEDRAGKQKFKSPMNTSWCSFNTADWVLPGKKMGNLSQLSSGEDKWLLRKKAQEVLLNSPLQEEHNFPPDHYGLPAVCDLFACMQLKVDKEKWLYRTPLQM
notes: also called ARA70-C (aa 383-614)
B5: GAL4 DBD fused Rb fragment (aa 371-928) (other)
chain: MKLLSSIEQACDICRLKKLKCSKEKPKCAKCLKNNWECRYSPKTKRSPLTRAHLTEVESRLERLEQLFLLIFPREDLDMILKMDSLQDIKALLTGLFVQDNVNKDAVTDRLASVETDMPLTLRQHRISATSSSEESSNKGQRQLTVSPHTPVRTVMNTIQQLMMILNSASDQPSENLISYFNNCTVNPKESILKRVKDIGYIFKEKFAKAVGQGCVEIGSQRYKLGVRLYYRVMESMLKSEEERLSIQNFSKLLNDNIFHMSLLACALEVVMATYSRSTSQNLDSGTDLSFPWILNVLNLKAFDFYKVIESFIKAEGNLTREMIKHLERCEHRIMESLAWLSDSPLFDLIKQSKDREGPTDHLESACPLNLPLQNNHTAADMYLSPVRSPKKKGSTTRVNSTANAETQATSAFQTQKPLKSTSLSLFYKKVYRLAYLRLNTLCERLLSEHPELEHIIWTLFQHTLQNEYELMRDRHLDQIMMCSMYGICKVKNIDLKFKIIVTAYKDLPHAVQETFKRVLIKEEEYDSIIVFYNSVFMQRLKTNILQYASTRPPTLSPIPHIPRSPYKFPSSPLRIPGGNIYISPLKSPYKISEGLPTPTKMTPRSRILVSIGESFGTSEKFQKINQMVCNSDRVLKRSAEGSNPPKPLKKLRFDIEGSDEADGSKHLPGESKFQQKLAEMTSTRTRMQKQKMNDSMDTSNKEEK
B6: GALAD70-N1: GAL4AD fused ARA70 aa 1-175 (other, not shown: large carriers)
chain: MNTFQDQSGSSSNREPLLRCSDARRDLELAIGGVLRAEQQIKDNLREVKAQIHSCISRHLECLRSREVWLYEQVDLIYQLKEETLQQQAQQLYSLLGQFNCLTHQLECTQNKDLANQVSVCLERLGSLTLKPEDSTVLLFEADTITLRQTITTFGSLKTIQIPEHLMAHASSANI
notes: also called ARA70-N1
B7: VP16 fused AR-LBD (aa 590-918) (receptor)
chain: KQKYLCASRNDCTIDKFRRKNCPSCRLRKCYEAGMTLGARKLKKLGNLKLQEEGEASSTTSPTEETTQKLTVSHIEGYECQPIFLNVLEAIEPGVVCAGHDNNQPDSFAALLSSLNELGERQLVHVVKWAKALPGFRNLHVDDQMAVIQYSWMGLMVFAMGWRSFTNVNSRMLYFAPDLVFNEYRMHKSRMYSQCVRMRHLSQEFGWLQITPQEFLCMKALLLFSIIPVDGLKNQKFFDELRMNYIKELDRIIACKRKNPTSCSRRFYQLTKLLDSVQPIARELHQFTFDLLIKSHMVSVDFPEMMAEIISVQVPKILSGKVKPIYFHT
notes: also called pCMX-VP16-AR
B8: GALAD70-N: GAL4AD fused ARA70 aa 1-401 (other, not shown: large carriers)
chain: MNTFQDQSGSSSNREPLLRCSDARRDLELAIGGVLRAEQQIKDNLREVKAQIHSCISRHLECLRSREVWLYEQVDLIYQLKEETLQQQAQQLYSLLGQFNCLTHQLECTQNKDLANQVSVCLERLGSLTLKPEDSTVLLFEADTITLRQTITTFGSLKTIQIPEHLMAHASSANIGPFLEKRGCISMPEQKSASGIVAVPFSEWLLGSKPASGYQAPYIPSTDPQDWLTQKQTLENSQTSSRACNFFNNVGGNLKGLENWLLKSEKSSYQKCNSHSTTSSFSIEMEKVGDQELPDQDEMDLSDWLVTPQESHKLRKPENGSRETSEKFKLLFQSYNVNDWLVKTDSCTNCQGNQPKGVEIENLGNLKCLNDHLEAKKPLSTPSMVTEDWLVQNHQDPCKVE
notes: the legend says GAL4AD fusions; also called ARA70N peptide (aa 1 to 401); ARA70-N
B9: GAL4 DBD fused ARA70-N1 (aa 1-175) (other)
chain: MKLLSSIEQACDICRLKKLKCSKEKPKCAKCLKNNWECRYSPKTKRSPLTRAHLTEVESRLERLEQLFLLIFPREDLDMILKMDSLQDIKALLTGLFVQDNVNKDAVTDRLASVETDMPLTLRQHRISATSSSEESSNKGQRQLTVSMNTFQDQSGSSSNREPLLRCSDARRDLELAIGGVLRAEQQIKDNLREVKAQIHSCISRHLECLRSREVWLYEQVDLIYQLKEETLQQQAQQLYSLLGQFNCLTHQLECTQNKDLANQVSVCLERLGSLTLKPEDSTVLLFEADTITLRQTITTFGSLKTIQIPEHLMAHASSANI
notes: Mammalian two-hybrid

How the values were obtained:
[1] = biological target: T1, GAL4 DBD fused with C-terminal fragment (aa 595-918) of wild-type AR (human, UniProt P04386 1-147 (Saccharomyces cerevisiae entry)); assay: yeast two-hybrid, plate nutritional selection
T1 construct: range 1-147; also called pAS2-AR; pAS2-wtAR
Source text: (§1) (B) The domains of ARA70 responsible for AR interaction by yeast two-hybrid assay. The interaction of different domains/motifs of ARA70 with wtAR assayed by plate nutritional selection in the yeast Y190 strain. […] Data were reproducible in two independent transformations.

[2] = biological target: T2, VP16 fused AR (Example 3) (human, UniProt P10275 36-920); assay: mammalian two-hybrid, DU145, pG5-Luc
T2 construct: also called VP16-AR
T2 sequence: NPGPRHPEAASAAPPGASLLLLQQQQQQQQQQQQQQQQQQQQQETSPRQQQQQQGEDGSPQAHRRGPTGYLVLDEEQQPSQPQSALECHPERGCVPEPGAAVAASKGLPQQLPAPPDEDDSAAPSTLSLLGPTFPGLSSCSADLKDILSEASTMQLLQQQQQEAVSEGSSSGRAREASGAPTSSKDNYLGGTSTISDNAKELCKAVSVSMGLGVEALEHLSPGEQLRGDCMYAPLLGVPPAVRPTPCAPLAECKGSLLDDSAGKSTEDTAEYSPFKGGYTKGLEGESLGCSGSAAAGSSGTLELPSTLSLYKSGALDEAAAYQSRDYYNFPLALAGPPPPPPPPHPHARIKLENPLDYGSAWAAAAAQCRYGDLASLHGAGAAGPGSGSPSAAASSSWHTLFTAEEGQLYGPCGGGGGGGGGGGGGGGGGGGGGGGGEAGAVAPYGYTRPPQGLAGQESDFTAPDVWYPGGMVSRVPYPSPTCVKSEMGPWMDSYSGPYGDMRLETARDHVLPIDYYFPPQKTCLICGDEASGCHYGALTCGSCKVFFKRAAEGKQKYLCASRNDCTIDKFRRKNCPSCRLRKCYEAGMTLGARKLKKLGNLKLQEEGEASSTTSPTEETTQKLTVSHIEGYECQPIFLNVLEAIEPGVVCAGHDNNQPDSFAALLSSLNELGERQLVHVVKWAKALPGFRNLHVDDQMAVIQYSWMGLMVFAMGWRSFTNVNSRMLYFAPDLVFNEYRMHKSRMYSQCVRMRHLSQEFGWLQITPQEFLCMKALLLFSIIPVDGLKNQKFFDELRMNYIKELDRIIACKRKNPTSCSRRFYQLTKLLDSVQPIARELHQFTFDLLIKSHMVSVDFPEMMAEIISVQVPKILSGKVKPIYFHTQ

[3] = biological target: pGAL0-AR: GAL4 DBD (a.a. 1-147) fused to hinge and LBD of wtAR (human, UniProt P04386 1-147 (Saccharomyces cerevisiae entry)); assay: cell-based or functional assay
[4] = biological target: B5; assay: mammalian two-hybrid, DU145, CAT
[5] = biological target: T1, GAL4 DBD fused with C-terminal fragment …; assay: yeast two-hybrid, 10 nM DHT
Source text: as §1

[6] = biological target: T3, VP16 fused near full-length AR (nAR, aa 36-918) (human, UniProt P10275 36-919); assay: cell-based or functional assay
T3 sequence: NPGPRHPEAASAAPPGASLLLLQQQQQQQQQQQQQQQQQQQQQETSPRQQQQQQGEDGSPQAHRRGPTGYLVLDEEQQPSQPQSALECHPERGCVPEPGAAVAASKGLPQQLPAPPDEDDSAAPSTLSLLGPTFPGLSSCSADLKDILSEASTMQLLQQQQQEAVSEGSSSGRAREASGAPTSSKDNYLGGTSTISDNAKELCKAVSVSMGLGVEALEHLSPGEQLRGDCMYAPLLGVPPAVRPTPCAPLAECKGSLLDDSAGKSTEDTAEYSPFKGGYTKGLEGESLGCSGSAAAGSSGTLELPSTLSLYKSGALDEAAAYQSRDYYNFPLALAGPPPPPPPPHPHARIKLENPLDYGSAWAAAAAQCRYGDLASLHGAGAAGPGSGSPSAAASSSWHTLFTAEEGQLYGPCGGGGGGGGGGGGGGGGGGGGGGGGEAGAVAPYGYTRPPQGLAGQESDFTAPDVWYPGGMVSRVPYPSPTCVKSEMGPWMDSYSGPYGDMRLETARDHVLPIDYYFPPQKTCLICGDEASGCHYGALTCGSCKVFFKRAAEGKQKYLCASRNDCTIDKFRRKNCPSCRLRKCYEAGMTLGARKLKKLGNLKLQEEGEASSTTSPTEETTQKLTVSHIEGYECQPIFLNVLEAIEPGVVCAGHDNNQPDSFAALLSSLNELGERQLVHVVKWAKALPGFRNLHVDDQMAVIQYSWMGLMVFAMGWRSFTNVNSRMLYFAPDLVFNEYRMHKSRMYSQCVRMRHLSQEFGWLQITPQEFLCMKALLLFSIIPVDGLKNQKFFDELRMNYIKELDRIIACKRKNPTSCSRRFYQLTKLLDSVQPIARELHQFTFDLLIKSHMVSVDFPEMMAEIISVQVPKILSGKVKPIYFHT

## B1
[1]
  binding result: binds

## B2
[2]
  binding result: no binding

## B3
[3]
  CAT activity, mammalian two-hybrid assay: 12 fold
[4]
  binding result: no binding

## QQLYSLLGQF (peptide, not shown: large carriers, also called ARA70 LXXLL (aa 90 to 99)) [GALAD70-LXXLL: GAL4AD fused ARA70 aa 90-99]
[5]
  binding result: no binding

## B4
[5]
  binding result: no binding

## B5
[6]
  CAT activity, mammalian two-hybrid system, DU145 cells: 3 fold

## B6
[5]
  binding result: no binding

## B7
[4]
  binding result: no binding

## B8
[1]
  binding result: binds

## B9
[2]
  binding result: no binding
